{
  "source": "paper PMC9916714",
  "about": "“NMR Analysis Suggests Synergy between the RRM2 and the Carboxy-Terminal Segment of Human La Protein in the Recognition and Interaction with HCV IRES”",
  "binders": {"B1": {"name": "HCV-IRES domain IV (structured_RNA)", "RNA": "AGACCGUGCACCAUGAGCACGAAUCCA"}},
  "test_in_all_cases": "ITC; 50 mM KPi pH 7, 25 C; 50 mM KPi pH 7; ITC at 25 C (50 uM protein in cell, 500 uM RNA in syringe); NMR at 298 K, 0.1 mM protein, 90% H2O/10% D2O",
  "conditions_in_all_cases": "protein: recombinant; tags: IMAC tag (pET20b+; tag not specified)",
  "key": {"La RRM1-RRM2-Cter": {"biological_target": "T1, La RRM1-RRM2-Cter (Homo sapiens, UniProt P05455 105-408)", "T1 sequence": "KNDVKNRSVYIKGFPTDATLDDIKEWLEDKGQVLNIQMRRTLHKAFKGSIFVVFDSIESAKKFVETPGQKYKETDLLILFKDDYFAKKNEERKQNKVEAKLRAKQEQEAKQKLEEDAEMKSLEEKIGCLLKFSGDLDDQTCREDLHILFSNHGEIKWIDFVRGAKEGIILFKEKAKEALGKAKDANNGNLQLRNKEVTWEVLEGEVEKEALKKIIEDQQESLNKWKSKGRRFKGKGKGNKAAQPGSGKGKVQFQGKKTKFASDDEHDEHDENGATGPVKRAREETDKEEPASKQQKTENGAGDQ"}, "La RRM2-Cter": {"biological_target": "T2, La RRM2-Cter (Homo sapiens, UniProt P05455 225-408)", "T2 sequence": "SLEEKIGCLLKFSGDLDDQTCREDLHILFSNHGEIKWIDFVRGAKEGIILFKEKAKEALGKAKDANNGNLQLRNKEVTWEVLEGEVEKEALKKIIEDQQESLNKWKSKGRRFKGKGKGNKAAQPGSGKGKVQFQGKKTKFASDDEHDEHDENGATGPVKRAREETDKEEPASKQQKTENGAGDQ"}, "La RRM2-SBM": {"biological_target": "T3, La RRM2-SBM (Homo sapiens, UniProt P05455 225-359)", "T3 sequence": "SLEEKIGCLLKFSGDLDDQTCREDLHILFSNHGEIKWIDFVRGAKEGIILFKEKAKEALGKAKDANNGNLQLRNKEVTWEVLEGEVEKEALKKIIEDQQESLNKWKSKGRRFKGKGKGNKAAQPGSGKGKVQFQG"}, "La RRM1-RRM2-SBM": {"biological_target": "T4, La RRM1-RRM2-SBM (Homo sapiens, UniProt P05455 105-359)", "T4 sequence": "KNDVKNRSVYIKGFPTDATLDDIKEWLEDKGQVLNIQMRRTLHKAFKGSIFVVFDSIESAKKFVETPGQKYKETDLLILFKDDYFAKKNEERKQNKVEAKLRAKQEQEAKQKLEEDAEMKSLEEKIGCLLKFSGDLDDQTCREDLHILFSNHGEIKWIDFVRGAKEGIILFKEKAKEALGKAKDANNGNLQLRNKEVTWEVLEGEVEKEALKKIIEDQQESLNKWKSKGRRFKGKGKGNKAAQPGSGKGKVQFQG"}},
  "data": [
    {"binder": "B1", "values": [
      {"measurement": "Kd", "setting": "La RRM1-RRM2-Cter", "result": "9.76 ± 1.1", "unit": "µM"},
      {"measurement": "Kd", "setting": "La RRM2-Cter", "result": "15.3 ± 1.49", "unit": "µM"},
      {"measurement": "Kd", "setting": "La RRM2-SBM", "result": "28.2 ± 1.21", "unit": "µM"},
      {"measurement": "Kd", "setting": "La RRM1-RRM2-SBM", "result": "10.3 ± 2.04", "unit": "µM"}
    ]}
  ]
}
